Changes are numbered by the printed parent chain.
Tests used:
GIPR H166Y (human) = target: T1, GIPR H166Y (human) (UniProt P48546)
T1 sequence: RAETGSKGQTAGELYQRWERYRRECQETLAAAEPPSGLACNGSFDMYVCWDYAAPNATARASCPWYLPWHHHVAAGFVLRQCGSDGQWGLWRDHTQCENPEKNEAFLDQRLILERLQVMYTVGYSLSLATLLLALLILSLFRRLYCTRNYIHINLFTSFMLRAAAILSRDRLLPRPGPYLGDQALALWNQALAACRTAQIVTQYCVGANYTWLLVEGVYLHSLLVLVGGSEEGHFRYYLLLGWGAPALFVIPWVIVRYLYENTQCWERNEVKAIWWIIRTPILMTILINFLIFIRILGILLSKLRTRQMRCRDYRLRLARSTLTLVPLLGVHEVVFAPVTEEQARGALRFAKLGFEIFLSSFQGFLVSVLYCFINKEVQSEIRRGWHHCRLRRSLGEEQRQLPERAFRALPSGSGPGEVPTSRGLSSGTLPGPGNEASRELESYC

GIPR A150T (human) = target: T2, GIPR A150T (human) (UniProt P48546)
T2 sequence: T1 sequence with A129T, Y145H

β-arrestin 2 recruitment (BRET) on stimulation with GIP(1-42): logEC50 (Arrestin) (log M (inferred)) (GIPR H166Y (human)): -9.22
β-arrestin 2 recruitment (BRET) on stimulation with GIP(1-42): logEC50 (Arrestin) (log M (inferred)) (GIPR A150T (human)): -8.92
Substance: β-arrestin 2 (Rluc8-Arrestin-3-Sp1) (from UniProt P32121 1-409) (natural protein)

Reference: article PMC11272584 (Nature Metabolism, 2024)
